Tested on: MS2 coat protein
Assay: apparent KD of MS2 coat protein; designed switch direction (-1 OFF switch, 1 ON switch): 1; higher = weaker reporter binding
Procedure, shortened: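 The reported apparent KD is a per-design median over clusters, from curve fits of normalised cluster fluorescence. Protein titrations used SNAP-549-labelled MS2 coat protein, doubled from 0.7 or 1.5 nM to 3 µM, in Tris-HCl pH 7.5 buffer with KCl, MgCl2, BSA, DTT, tRNA and Tween-20, with no input, 200 uM small-molecule ligand, or an oligonucleotide input. The RNA switches were transcribed on Illumina chips by stalled E. coli RNA polymerase.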

[1] = Eterna round: R95, input ligand: FMN 200 uM
[2] = Eterna round: R95, input ligand: microRNA oligo, concentration not stated
[3] = Eterna round: R95, input ligand: none
[4] = input ligand: microRNA oligo, concentration not stated

Row | Sequence | apparent KD of MS2 coat protein [1] [nM] | apparent KD of MS2 coat protein [2] [nM] | apparent KD of MS2 coat protein [3] [nM] | apparent KD of MS2 coat protein (input ligand: FMN 200 uM) [nM] | apparent KD of MS2 coat protein [4] [nM] | apparent KD of MS2 coat protein (input ligand: none) [nM]
1 | GUUAUACAUGAGGAUCACCCAUGUCAAUGUAGUCGAGGAUAUGGGUAGCCAUGAGGCGUACUAGAAGGCGAGGAGU [JL-ss1-3.19 ViennaUCT mod] (puzzle: Same State 1) | 130 | 68.8 | 81.5 | – | – | –
2 | GUUACAUGAGGAUCACCCAUGUAUGUGUGGGAGUAAGUGUCUUAGGAUAUCUAGUAAUUAAUUUAAGAGAAGGAAGAUUGUUGU [JMF's solution 54] (Eterna round: R96, puzzle: Same State NG 3) | – | – | – | 133 | 93.5 | 134
3 | GAGGGACAGACCAACAUGAGGAUCACCCAUGUCCUCGCAGUUCAGGAUAUCUGGAGGAAGAAGAAAGAGAAGGGAAGGUGAACC [AK SSNG3-V2-35] (Eterna round: R96, puzzle: Same State NG 3) | – | – | – | 312 | 65.3 | 120
4 | UUAUCAUUGCAAGGAUAUUGAUUACAUGAGGAUCACCCAUGUUAAUGAACACUAUGUACUACUAACAAGAAGGUGCUAUAAAUU [JR_SSNG2_Sub041] (Eterna round: R96, puzzle: Same State NG 2) | – | – | – | 35.1 | 28 | 34.3
5 | UUGAGGUGUCAAGGAUAUGCUACCGUUUCGGUAGCAGAAGGUGAUCACAUGAGGAUCACCCAUGUAUGCAUGCGUGAGCGUGCU [JL SSNG1 3.61] (Eterna round: R96, puzzle: Same State NG 1) | – | – | – | – | 23.4 | –
6 | GCUAGAAUUAAUGCCUACAUGAGGAUCACCCAUGUAUGUAGGCAGGAUAUCGUUUGCAAAGCAAACGAGAAGGGCCUUACUAGC [Mat - Same State NG 3 - JL Mod - D28] (Eterna round: R96, puzzle: Same State NG 3) | – | – | – | 21.9 | 46.1 | 63.7
7 | AUUAAACAUGAGGAUCACCCAUGUCAACAAAGUCGAGGAUAUGGGCAAAUAAAUUAAGAACCAGAAGGCGAAUAAU [salish99_ss1_r3_057] (puzzle: Same State 1) | – | 266 | – | – | – | –
8 | AAAAGACAUGAGGAUCACCCAUGUACCAGGUCCACAGGAUAUCAUGCGUGGUUGAAUUCAUGAGAAGGGUGAGACA [Getied] (puzzle: Same State 1) | 48.7 | 188 | 311 | – | – | –
9 | CGGCGCUGUCGAGAGGAUAUGCGGUGAUGGACAUGAGGAUCACCCAUGUUAGCGAUAGCAUCACGGUAGAAGGCUCUACGGCCUG [Soteed Omei mod 22] (puzzle: Same State 2) | – | 52.3 | – | – | – | –
10 | UUCCCAGCGGGAGGAUAUGGUGCCUUGUUGGUGCUAGAAGGUCCAACAUGAGGAUCACCCAUGUGGGAGUGGUCGAGAGACCUC [SS NG10LRO10] (Eterna round: R96, puzzle: Same State NG 1) | – | – | – | 307 | 238 | 427
11 | AGCUAGUACCGAGGAUAUACAUACAUGAGGAUCACCCAUGUAUACAUGAAAUAAUGAGACUACAUGUAGAAGGCGGUACUAGCA [Mat - Same State NG 2 - JL mod - D45] (Eterna round: R96, puzzle: Same State NG 2) | – | – | – | 16.9 | 43.5 | 63.4
12 | UGUACCUUCACAGGAUAUCAUGCGAAAAUUGCGUGAGAAGGGUGAAUACGGUGUUCAUUGUUGCACAUGAGGAUCACCCAUGUA [SameState NG1 #55] (Eterna round: R96, puzzle: Same State NG 1) | – | – | – | 269 | 74.9 | 259
13 | AUUAAACAUGAGGAUCACCCAUGUAAUAAUAUGGGAGGAUAUGCGAAUUUAAUUAUUUAAGCAGAAGGCCUAAUUA [Mat - Same State 1 - D100] (puzzle: Same State 1) | – | 56 | – | – | – | –
14 | AGAGGAGGAGCAGGAUAUUCGAAGAAGGACGUGGAAGAAGGGUUCAUGCGAUGACAUGAGGAUCACCCAUGUACCGCGCGAGGA [AK SSNG1-V2-12] (Eterna round: R96, puzzle: Same State NG 1) | – | – | – | 63.4 | 42.6 | 69
15 | GCGAAACAUGAGGAUCACCCAUGUAUGGCGGGCACAGGAUAUCGUGGUUCGCUCAUACUACGAGAAGGGUGAAAAG [Orqu] (puzzle: Same State 1) | 24.1 | 18.4 | 16.9 | – | – | –
16 | AUUAAUUAUGCAGGAUAUGAUUAACAUGAGGAUCACCCAUGUGGUGUUGUGAGUAAGGAGAGUGAUCAGAAGGGCAUUUUUUUU [JMF's solution 66] (Eterna round: R96, puzzle: Same State NG 2) | – | – | – | 652 | 524 | 449

Row | Sequence | apparent KD of MS2 coat protein [1] [nM] | apparent KD of MS2 coat protein [2] [nM] | apparent KD of MS2 coat protein [3] [nM] | apparent KD of MS2 coat protein (input ligand: FMN 200 uM) [nM] | apparent KD of MS2 coat protein [4] [nM] | apparent KD of MS2 coat protein (input ligand: none) [nM]
17 | GAGAGACAUGAGGAUCACCCAUGUAGAAUAGAACAAGGAUAUGUGGAAGGCGGAGGAGAGACAGAAGGUGUAGGAA [JR_SS1_Sub054] (puzzle: Same State 1) | 62.5 | 76.8 | 84.9 | – | – | –
18 | GUGGUCAGACAUGAGGAUCACCCAUGUGGAAUAAAUAAGGGUCAGGAUAUCUAAUAUAGGAUAUAAGAGAAGGGAUGGUUGGUG (Eterna round: R96, puzzle: Same State NG 3) | – | – | – | 89.2 | 89.4 | 82.7
19 | GGAGCCGGCCUAGGAUAUUUCAUAAAUUAACAUGAGGAUCACCCAUGUAGGCCAGAAGGCCUUGGGAAGAAGGAGGUCGGCUCC [Loop Effect - U27,U28] (Eterna round: R96, puzzle: Same State NG 2) | – | – | – | 16.8 | 37.7 | 51.4
20 | UGAAUGGUGAUAGGAUAUACAUGAGGAAUCCUCGUAGAAGGAUCAUGACAUGAGGAUCACCCAUGUAGCCGUCCGUAGACGGCA [JL SSNG1 1.22] (Eterna round: R96, puzzle: Same State NG 1) | – | – | – | 140 | 22.1 | 351
21 | UUUAGAUUCAGAGGAUAUUGAUGUUGUAAGUAACAAGAAGGCUGAAUGGUUAGAAUUGUUUAUUAACAUGAGGAUCACCCAUGU [JR_SSNG1_Sub009] (Eterna round: R96, puzzle: Same State NG 1) | – | – | – | 17 | 17.1 | 20.8
22 | UGGCUCAGACGAGGAUAUGAUCAUGGCGCUUCGGCGCAUACAUGAGGAUCACCCAUGUAAAGUGAUCAGAAGGCGUCUGAGCCU [SSNG2/7-A3] (Eterna round: R96, puzzle: Same State NG 2) | – | – | – | 14.8 | 11.1 | 15
23 | UGUUGUAUUACAGGAUAUCUAUUGUAUUUAUUUAGAGAAGGGUAUUCACAUGAGGAUCACCCAUGUAUAUACGAGGAAGUUGUG [JMF's solution 73] (Eterna round: R96, puzzle: Same State NG 1) | – | – | – | – | 46.7 | –
24 | UAAAGCGACGUAGGAUAUCCUCUACAUGCGUAAGGAGAAGGAUGCGCAACAUGAGGAUCACCCAUGUAAAACCAGCACUGCUGG [Isaerte] (Eterna round: R96, puzzle: Same State NG 1) | – | – | – | 71.9 | 22.5 | 36.7
25 | ACAUGAGACUUAGGAUAUCUUGUACCUACAUGUGACAUGAGGAUCACCCAUGUGGUAAGUAUGAGAGAGAAGGAAGAGAUAUGU [Equivalence 37 - Jieux - Same State NG 2] (Eterna round: R96, puzzle: Same State NG 2) | – | – | – | 19.7 | 14.4 | 23.2
26 | CGACACACGGCAGGAUAUGCUUAGCAAAGCUAAGCAGAAGGGCCUCAUGUCGUGGAAACGUGACAUGAGGAUCACCCAUGUUGC [Omei SS(NG)1 Cv1] (Eterna round: R96, puzzle: Same State NG 1) | – | – | – | 21 | 5.59 | 36.3
27 | AGUCCUGCCUGAGCAGGACAAAAGCAUGUACAUGAGGAUCACCCAUGUCAUGUACAAGCUUUUUGCUCGUCUUAAUA [Mat - hsa-mir-208a - Mod of JL - D41] (Eterna round: R96, puzzle: Sensor for hsa-mir-208a) | – | – | – | 624 | 13.7 | 735
28 | AGUAGUUUAACAUGAGGAUCACCCAUGUAUUUUUCUGUAACCUAGGAUAUGGGCGUUGUAUUUAUCCAGAAGGAGGAUCGUUUA [JR_SSNG3_Sub048] (Eterna round: R96, puzzle: Same State NG 3) | – | – | – | 30.3 | 28.3 | 31.1
29 | AUACUCAUGUAAGGAUAUGCAGCCGAAACGGCUGCAGAAGGUACUAUAAUACAUGAGGAUCACCCAUGUCAAAAUUAUUUAGUU [Mat - Same State NG 1 - JL mod - D99] (Eterna round: R96, puzzle: Same State NG 1) | – | – | – | 19.5 | 21.9 | 22.3
30 | GGUGGGUUGCUGCCGGCACAUGAGGAUCACCCAUGUUUUGGGAAGGAUAUGGUACCUAUUUGGUGCCAGAAGGUCCCGUUGGUG [salish99_SSNG3_r04_710] (Eterna round: R96, puzzle: Same State NG 3) | – | – | – | 402 | 376 | 480
31 | GUAUAACAUGAGGAUCACCCAUGUCAUCUAAGUCGAGGAUAUGGGAAUUAAUUAAUUAAACCAGAAGGCGAAAAUU [Mat - Same State 1 - D92] (puzzle: Same State 1) | 79 | 364 | 492 | – | – | –

— the supplement of paper PMC9170038
